Laboratory results: patent US7268215B2, “Photoprotein derived from okinawan squid and gene encoding the photoprotein” (Nagoya University, priority 2000, dated 2007)

B1: 40 kDa protein: 40 kDa trypsin fragment of symplectin, C-terminal portion, SEQ ID NO:2 (protein, listed as Symplectoteuthis oualaniensis)
chain: ATEPECPGDKQLLYNTNVAFNNEGDVVARYYKTHLFWEEGWFNSSKNYEMALWDTPIGKFGTFMCFDFQAVQLIEQYNVRHIAYPASWVNLPPIYQSIQSHSAFARFAKINLLAASVHRLETSTYGSGIYSPNGAEIFYFRPDIPKSKLLVAEILPIHVKKPEQTVVNFDNPVFPSEDDDVQDLFDRGDFAFLKYKRMTTRAGTVEVCQKSFCCKARYAVKDRFKEVYAVGVYDGLLSAGANNLYFQICTVIQCPHKKCGLKISKVRTHFKYLNLRADGWLDRYVFPSYTVMYNNYIALDPFVWNYTVAGGIETKPGTSTPLHSANLVARIYAKDSSKHVHQPHPIDEGVIKMAVKYMLYVMAAYVYAAS
B2: recombinant symplectin protein: recombinant symplectin expressed in E. coli from pET-60 as a fusion protein with thioredoxin (protein)
chain: FEHQVIPPKTDMETREEALDALKLNSDVYHEAVLESRSKGVKMIVFPEYGLYDINTLTRTRMDLMAEKVPHPKHGHRNPCDEPEYQTQSSEMLRTFSCMAKENDMYMVVNMAGREPCRRATEPECPGDKQLLYNTNVAFNNEGDVVARYYKTHLFWEEGWFNSSKNYEMALWDTPIGKFGTFMCFDFQAVQLIEQYNVRHIAYPASWVNLPPIYQSIQSHSAFARFAKINLLAASVHRLETSTYGSGIYSPNGAEIFYFRPDIPKSKLLVAEILPIHVKKPEQTVVNKDNPVFPSEDDDVQDLFDRGDFAFLKYKRMTTRAGTVEVCQKSFCCKARYAVKDRFKEVYAVGVYDGLLSAGANNLYFQICTVIQCPHKKCGLKISKVRTHFKYLNLRADGWLDRYVFPSYTVMYNNYIALDPFVWNYTVAGGIETKPGTSTPLHSANLVARIYAKDSSKHVHQPHPIDEGVIKMAVKYMLYVMAAYVYAAS
modifications: left off: large carriers; things letters cannot carry
notes: recombinant symplectin expressed in E. coli from pET-60 as a fusion protein with thioredoxin
B3: symplectin: photoprotein derived from okinawan squid (Symplectoteuthis oualaniensis), 501 amino acids, SEQ ID NO:1 (protein, listed as Symplectoteuthis oualaniensis)
chain: YVRPVSSWKVAVFEHQVIPPKTDMETREEALDALKLNSDVYHEAVLESRSKGVKMIVFPEYGLYDINTLTRTRMDLMAEKVPHPKHGHRNPCDEPEYQTQSSEMLRTFSCMAKENDMYMVVNMAGREPCRRATEPECPGDKQLLYNTNVAFNNEGDVVARYYKTHLFWEEGWFNSSKNYEMALWDTPIGKFGTFMCFDFQAVQLIEQYNVRHIAYPASWVNLPPIYQSIQSHSAFARFAKINLLAASVHRLETSTYGSGIYSPNGAEIFYFRPDIPKSKLLVAEILPIHVKKPEQTVVNKDNPVFPSEDDDVQDLFDRGDFAFLKYKRMTTRAGTVEVCQKSFCCKARYAVKDRFKEVYAVGVYDGLLSAGANNLYFQICTVIQCPHKKCGLKISKVRTHFKYLNLRADGWLDRYVFPSYTVMYNNYIALDPFVWNYTVAGGIETKPGTSTPLHSANLVARIYAKDSSKHVHQPHPIDEGVIKMAVKYMLYVMAAYVYAAS

Assays:
[1] = luminescent ability of purified photoprotein and its trypsin fragments; format: biochemical, Symplectoteuthis oualaniensis; details: purified protein before and after trypsin digestion
Description: From photogenic organ of okinawan squid, collected at the sea area of Okinawa Prefecture Japan, the photoprotein having a molecular mass of 60 kDa was separated and purified as a luminescent ability as an index. This photoprotein was soluble in a solution containing KCl at a concentration of more than 0.6M. At first, homogenate of the photogenic organ containing symplectin was washed by KCl solution (pH 6.0) of 0.4M. Then, it was extracted with a KCl solution of 0.6M, and a portion thereof was added to a buffer having pH of 8.0 to confirm the luminescent ability. Because of high salt concentration, means of chromatography applicable for purification of the extract was limited. When the purified protein was hydrolyzed by trypsin, two products having molecular masses of 40 kDa and 15 kDa were produced from the original protein of 60 kDa (FIG. 2). […] Fragments of 40 kDa and 15 kDa were recognized after trypsin digestion, particularly in lane 3 corresponding to the purified protein. […] However, the amino acid sequence of the 15 kDa protein was the same as the N-terminal amino acid sequence of the 60 kDa protein. […] Incidentally, the active region responsible for the photogenic function would exist at the C-terminal portion corresponding to the 40 kDa protein.

[2] = bioluminescence assay of recombinant symplectin protein with dehydrocoeleneterazine; format: biochemical, Symplectoteuthis oualaniensis; details: complex with dehydrocoeleneterazine, 37° C. for 30 min, alkaline buffer (pH9.8) added
Description: The PCR products were separated on an agarose gel succeeded by digestion with EcoRI and SalI. Then it was ligated to EcoRI and SalI site of pET-32a(+) to construct a vector. The vector was designated pET-60 and it was utilized for expression of symplectin protein. The E. coli strain BL21(DE3)pLysS, transformed by pET-60, was grown in Luria broth (LB) at 37° C. Expression of the protein was induced by addition of isopropyl-1-thio-b-D-galactopyranoside (IPTG). The cells were harvested by centrifugation and lysed by sonication in a buffer. The homogenate was centrifuged, and the supernatant was subjected to affinity chromatography using His-Bind Resin. The fusion protein with thioredoxin was purified by a step-wise manner elution with varied imidazole concentrations. The recombinant symplectin protein was obtained as a fusion protein with thioredoxin, according to the manipulation described above. The recombinant symplectin protein was subjected to bioluminescence assay. The recombinant symplectin protein was suspended in a buffer, mixed with chromophore dehydrocoeleneterazine, then protein-chromophore complex was formed by incubation at 37° C. for 30 min. The alkaline buffer (pH9.8) was added to increase pH of the protein-chromophore complex solution and the bioluminescence reaction was initiated. […]

[3] = enzymatic characteristics and cation trigger of luminescence; format: biochemical, Symplectoteuthis oualaniensis; details: different from aequorin
Description: The photoprotein of okinawan squid has a low solubility and there is no conventional method for research of the protein. When a surfactant to solubilize the membrane protein is used, luminescent activity of the okinawan squid photoprotein would be disrupted. By addition of KCl (a caotropic salt) to a buffer, the protein can be solubilized without disrupting its activity. The effects of various kinds of salts on the objective protein are examined in the terms of extraction efficiency and luminescent activity. […] Enzymatic characteristic of okinawan squid was investigated. […] (Isobe M. et al., Pure and Appl. Chem., (1998) Vol.70, 2085-2092).

[4] = format: physicochemical, Symplectoteuthis oualaniensis
Description: The photoprotein of okinawan squid has a low solubility and there is no conventional method for research of the protein. When a surfactant to solubilize the membrane protein is used, luminescent activity of the okinawan squid photoprotein would be disrupted. By addition of KCl (a caotropic salt) to a buffer, the protein can be solubilized without disrupting its activity. The effects of various kinds of salts on the objective protein are examined in the terms of extraction efficiency and luminescent activity. […] Enzymatic characteristic of okinawan squid was investigated. […] (Isobe M. et al., Pure and Appl. Chem., (1998) Vol.70, 2085-2092). From photogenic organ of okinawan squid, collected at the sea area of Okinawa Prefecture Japan, the photoprotein having a molecular mass of 60 kDa was separated and purified as a luminescent ability as an index. This photoprotein was soluble in a solution containing KCl at a concentration of more than 0.6M. At first, homogenate of the photogenic organ containing symplectin was washed by KCl solution (pH 6.0) of 0.4M. Then, it was extracted with a KCl solution of 0.6M, and a portion thereof was added to a buffer having pH of 8.0 to confirm the luminescent ability. Because of high salt concentration, means of chromatography applicable for purification of the extract was limited.

| Molecule | ability to emit luminescence [1] | ability to emit luminescence ([1]; listed as 40 kDa fragment) | luminescence monitored by lumiphotometer [2] | triggering of luminescence by a divalent cation [3] | KCl concentration of solution in which the photoprotein is soluble [4] | solubility into an aqueous solution [4] |
| --- | --- | --- | --- | --- | --- | --- |
| B1 | exhibited luminescence | exhibited photogenic activity | – | – | – | – |
| B2 | – | – | obvious luminescence was detected | – | – | – |
| B3 | exhibited luminescence | – | – | not triggered by a divalent cation | more than 0.6 M | low |
